Assay results published in US20140087995A1 (published 2014).
Where two headings read alike, the source gives them in different places. Numbered stars: 1 amine (or outer) side, 2 acyl side, 3 side chain; on linkers, the order of the positions; unused ones are H or OH. Bridge positions count the residues as written; N and C are the ends. Side chains are listed from the residue outwards. Ends that are not written are not given here. * marks the point of attachment. C20 diacid = O=C(O)CCCCCCCCCCCCCCCCCCC(=O)*; γGlu = O=C(O)[C@H](CCC(=O)[*:2])N[*:1]; AEEA = NCCOCCOCC(=O)O

T1: human calcitonin receptor (human, UniProt P30988 25-474)
T1 sequence (looked up): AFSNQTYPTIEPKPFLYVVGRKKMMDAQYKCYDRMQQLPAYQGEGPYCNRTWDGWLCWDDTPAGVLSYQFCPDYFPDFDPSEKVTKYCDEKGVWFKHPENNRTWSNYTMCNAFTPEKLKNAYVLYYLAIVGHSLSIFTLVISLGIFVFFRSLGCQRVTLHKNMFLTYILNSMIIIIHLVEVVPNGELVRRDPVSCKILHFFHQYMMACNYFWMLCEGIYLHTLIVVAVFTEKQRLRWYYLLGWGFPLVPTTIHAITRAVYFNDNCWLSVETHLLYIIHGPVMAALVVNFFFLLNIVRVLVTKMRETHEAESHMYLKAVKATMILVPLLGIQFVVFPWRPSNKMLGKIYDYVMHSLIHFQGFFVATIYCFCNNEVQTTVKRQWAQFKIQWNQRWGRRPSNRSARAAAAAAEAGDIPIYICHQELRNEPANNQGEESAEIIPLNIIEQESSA

T2: human amylin receptor (amylin 3(a) receptor: human calcitonin receptor co-expressed with RAMP-3) (human, UniProt P30988 25-474; O60896 24-148, limits assumed)
T2 sequence (looked up) 1: T1 sequence (looked up)
T2 sequence (looked up) 2: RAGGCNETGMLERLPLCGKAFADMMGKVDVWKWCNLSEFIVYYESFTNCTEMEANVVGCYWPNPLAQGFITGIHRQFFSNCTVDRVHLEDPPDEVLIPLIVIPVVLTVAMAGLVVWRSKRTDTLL

T3: human amylin 3(a) receptor (human calcitonin receptor plus RAMP-3) (human, UniProt P30988 25-474; O60896 24-148, limits assumed)
T3 construct: whole, on cells; Whole cells in the luciferase assay (Assay II a); also called hAmylin-R; human amylin receptor
T3 sequence (looked up) 1: T1 sequence (looked up)
T3 sequence (looked up) 2: T2 sequence (looked up) 2

T4: human calcitonin receptor (human, UniProt P30988 25-474)
T4 sequence (looked up): T1 sequence (looked up)

B1: N^ε1-[(4S)-4-carboxy-4-(19-carboxynonadecanoylamino)butanoyl]-[Arg17,Pro21,Pro27]-h-amylin (peptide)
peptide: K([γGlu-C20 diacid])CNTATCATQRLANFLRHSSPNFGAIPSSTNVGSNTY-NH2
modifications: disulfide 2-7; N-terminus assumed
SMILES: CC[C@H](C)[C@H](NC(=O)[C@H](C)NC(=O)CNC(=O)[C@H](Cc1ccccc1)NC(=O)[C@H](CC(N)=O)NC(=O)[C@@H]1CCCN1C(=O)[C@H](CO)NC(=O)[C@H](CO)NC(=O)[C@H](Cc1c[nH]cn1)NC(=O)[C@H](CCCNC(=N)N)NC(=O)[C@H](CC(C)C)NC(=O)[C@H](Cc1ccccc1)NC(=O)[C@H](CC(N)=O)NC(=O)[C@H](C)NC(=O)[C@H](CC(C)C)NC(=O)[C@H](CCCNC(=N)N)NC(=O)[C@H](CCC(N)=O)NC(=O)[C@@H](NC(=O)[C@H](C)NC(=O)[C@@H]1CSSC[C@H](NC(=O)[C@@H](N)CCCCNC(=O)CC[C@H](NC(=O)CCCCCCCCCCCCCCCCCCC(=O)O)C(=O)O)C(=O)N[C@@H](CC(N)=O)C(=O)N[C@@H]([C@@H](C)O)C(=O)N[C@@H](C)C(=O)N[C@@H]([C@@H](C)O)C(=O)N1)[C@@H](C)O)C(=O)N1CCC[C@H]1C(=O)N[C@@H](CO)C(=O)N[C@@H](CO)C(=O)N[C@H](C(=O)N[C@@H](CC(N)=O)C(=O)N[C@H](C(=O)NCC(=O)N[C@@H](CO)C(=O)N[C@@H](CC(N)=O)C(=O)N[C@H](C(=O)N[C@@H](Cc1ccc(O)cc1)C(N)=O)[C@@H](C)O)C(C)C)[C@@H](C)O
notes: also called compound 48
B2: N^ε-[2-[2-[2-[[(4S)-4-carboxy-4-(19-carboxynonadecanoylamino)butanoyl]amino]ethoxy]ethoxy]acetyl]Lys[Arg1,Arg17,Pro21,Pro27,His35]-h-amylin (peptide)
peptide: K([AEEA-γGlu-C20 diacid])RCNTATCATQRLANFLRHSSPNFGAIPSSTNVGSHTY-NH2
modifications: disulfide 3-8; N-terminus assumed
SMILES: CC[C@H](C)[C@H](NC(=O)[C@H](C)NC(=O)CNC(=O)[C@H](Cc1ccccc1)NC(=O)[C@H](CC(N)=O)NC(=O)[C@@H]1CCCN1C(=O)[C@H](CO)NC(=O)[C@H](CO)NC(=O)[C@H](Cc1c[nH]cn1)NC(=O)[C@H](CCCNC(=N)N)NC(=O)[C@H](CC(C)C)NC(=O)[C@H](Cc1ccccc1)NC(=O)[C@H](CC(N)=O)NC(=O)[C@H](C)NC(=O)[C@H](CC(C)C)NC(=O)[C@H](CCCNC(=N)N)NC(=O)[C@H](CCC(N)=O)NC(=O)[C@@H](NC(=O)[C@H](C)NC(=O)[C@@H]1CSSC[C@H](NC(=O)[C@H](CCCNC(=N)N)NC(=O)[C@@H](N)CCCCNC(=O)COCCOCCNC(=O)CC[C@H](NC(=O)CCCCCCCCCCCCCCCCCCC(=O)O)C(=O)O)C(=O)N[C@@H](CC(N)=O)C(=O)N[C@@H]([C@@H](C)O)C(=O)N[C@@H](C)C(=O)N[C@@H]([C@@H](C)O)C(=O)N1)[C@@H](C)O)C(=O)N1CCC[C@H]1C(=O)N[C@@H](CO)C(=O)N[C@@H](CO)C(=O)N[C@H](C(=O)N[C@@H](CC(N)=O)C(=O)N[C@H](C(=O)NCC(=O)N[C@@H](CO)C(=O)N[C@@H](Cc1c[nH]cn1)C(=O)N[C@H](C(=O)N[C@@H](Cc1ccc(O)cc1)C(N)=O)[C@@H](C)O)C(C)C)[C@@H](C)O
notes: 38 residues: N-terminal extension by Lys (-1K); also called compound 45
B3: N^α1-[(4S)-4-carboxy-4-(19-carboxynonadecanoylamino)butanoyl]-[Glu14,Arg17,Pro21,Pro27]-h-amylin (peptide)
peptide: KCNTATCATQRLAEFLRHSSPNFGAIPSSTNVGSNTY
modifications: C20 diacid-gGlu on the alpha amino group of the N-terminal residue (position 1); disulfide bridge Cys2-Cys7; C-terminal amide
notes: also called compound 9
B4: N^α1-[2-[2-[2-[[2-[2-[2-[[(4S)-4-carboxy-4-(19-carboxynonadecanoylamino)butanoyl]amino]ethoxy]ethoxy]acetyl]amino]ethoxy]ethoxy]acetyl]-[Glu14,Arg17,Pro21,Pro27 … (peptide)
peptide: {C20 diacid-γGlu-AEEA-AEEA}-KCNTATCATQRLAEFLRHSSPNFGAIPSSTNVGSNTP-NH2
modifications: disulfide 2-7
SMILES: CC[C@H](C)[C@H](NC(=O)[C@H](C)NC(=O)CNC(=O)[C@H](Cc1ccccc1)NC(=O)[C@H](CC(N)=O)NC(=O)[C@@H]1CCCN1C(=O)[C@H](CO)NC(=O)[C@H](CO)NC(=O)[C@H](Cc1c[nH]cn1)NC(=O)[C@H](CCCNC(=N)N)NC(=O)[C@H](CC(C)C)NC(=O)[C@H](Cc1ccccc1)NC(=O)[C@H](CCC(=O)O)NC(=O)[C@H](C)NC(=O)[C@H](CC(C)C)NC(=O)[C@H](CCCNC(=N)N)NC(=O)[C@H](CCC(N)=O)NC(=O)[C@@H](NC(=O)[C@H](C)NC(=O)[C@@H]1CSSC[C@H](NC(=O)[C@H](CCCCN)NC(=O)COCCOCCNC(=O)COCCOCCNC(=O)CC[C@H](NC(=O)CCCCCCCCCCCCCCCCCCC(=O)O)C(=O)O)C(=O)N[C@@H](CC(N)=O)C(=O)N[C@@H]([C@@H](C)O)C(=O)N[C@@H](C)C(=O)N[C@@H]([C@@H](C)O)C(=O)N1)[C@@H](C)O)C(=O)N1CCC[C@H]1C(=O)N[C@@H](CO)C(=O)N[C@@H](CO)C(=O)N[C@H](C(=O)N[C@@H](CC(N)=O)C(=O)N[C@H](C(=O)NCC(=O)N[C@@H](CO)C(=O)N[C@@H](CC(N)=O)C(=O)N[C@H](C(=O)N1CCC[C@H]1C(N)=O)[C@@H](C)O)C(C)C)[C@@H](C)O
notes: also called compound 20
B5: N^α1-[(4S)-4-carboxy-4-(19-carboxynonadecanoylamino)butanoyl]-[Glu14,Arg17,Pro21,Pro25,Pro28,Pro29,Pro37]-h-amylin (peptide)
peptide: {C20 diacid-γGlu}-KCNTATCATQRLAEFLRHSSPNFGPILPPTNVGSNTP-NH2
modifications: disulfide 2-7
SMILES: CC[C@H](C)[C@H](NC(=O)[C@@H]1CCCN1C(=O)CNC(=O)[C@H](Cc1ccccc1)NC(=O)[C@H](CC(N)=O)NC(=O)[C@@H]1CCCN1C(=O)[C@H](CO)NC(=O)[C@H](CO)NC(=O)[C@H](Cc1c[nH]cn1)NC(=O)[C@H](CCCNC(=N)N)NC(=O)[C@H](CC(C)C)NC(=O)[C@H](Cc1ccccc1)NC(=O)[C@H](CCC(=O)O)NC(=O)[C@H](C)NC(=O)[C@H](CC(C)C)NC(=O)[C@H](CCCNC(=N)N)NC(=O)[C@H](CCC(N)=O)NC(=O)[C@@H](NC(=O)[C@H](C)NC(=O)[C@@H]1CSSC[C@H](NC(=O)[C@H](CCCCN)NC(=O)CC[C@H](NC(=O)CCCCCCCCCCCCCCCCCCC(=O)O)C(=O)O)C(=O)N[C@@H](CC(N)=O)C(=O)N[C@@H]([C@@H](C)O)C(=O)N[C@@H](C)C(=O)N[C@@H]([C@@H](C)O)C(=O)N1)[C@@H](C)O)C(=O)N[C@@H](CC(C)C)C(=O)N1CCC[C@H]1C(=O)N1CCC[C@H]1C(=O)N[C@H](C(=O)N[C@@H](CC(N)=O)C(=O)N[C@H](C(=O)NCC(=O)N[C@@H](CO)C(=O)N[C@@H](CC(N)=O)C(=O)N[C@H](C(=O)N1CCC[C@H]1C(N)=O)[C@@H](C)O)C(C)C)[C@@H](C)O
notes: also called compound 4

What was measured:
[1] = target: T1, human calcitonin receptor; experiment: cell-based or functional assay
[2] = target: T2, human amylin receptor (amylin 3(a) …); experiment: cell-based or functional assay
[3] = target: T3, human amylin 3(a) receptor (human …); experiment: SPA competition binding, displacement of 125I-rat amylin from membranes of Amylin 3(a)/CRE-luc BHK cells (Assay V)
Description: The binding assay was performed using scintillation proximity assay (SPA) beads (RPNQ0001) from PerkinElmer and cell membranes from the Amylin 3(a)/CRE-luc cells (as described in Assay (II)) were used. Membranes were prepared in the following way; the cells were rinsed with PBS and incubated with Versene for approximately 5 min before harvesting. The cells were flushed with PBS and the cell-suspension was centrifuged for 5 min at 1000 rpm. Cells were homogenized (ultrathurrax) in a buffer containing 20 mM Na-HEPES and 10 mM EDTA (pH 7.4) and centrifuged at 20.000 rpm for 15 min. The resulting pellet was resuspended, homogenized and centrifuged (20.000 rpm, 15 min) in a buffer containing 20 mM Na-HEPES and 0.1 mM EDTA (pH 7.4, buffer 2). The resulting pellet was resuspended in buffer 2 and protein concentration was measured (BCA protein Assay, Pierce). The homogenate was kept cold during the whole procedure. The membranes were kept at −80° C. until use. The assay was performed in a 384 well Optiplate (PerkinElmer) in a total volume of 40 ul. Membranes were mixed with SPA beads. Final concentration of membranes 35 ng/μL final and SPA beads was 0.05 mg/well. Test-compounds were dissolved in DMSO and further diluted in assay buffer (50 mM Hepes, pH 7.4, 1 mM CaCl2, 5 mM MgCl₂, 0.1% OA and 0.02% Tween20). […] The final mixture was incubated with shaking at 400 rpm for 120 min at 25° C. prior to centrifugation (1500 rpm, 10 min). Samples were analyzed on TopCounter™ (Packard). The IC₅₀ was calculated using (one site binding competition analysis) GraphPad Prism5 as a measure of receptor affinity.

[4] = target: T3, human amylin 3(a) receptor (human …); experiment: cell-based or functional assay
[5] = target: T4, human calcitonin receptor; experiment: cell-based or functional assay; remark: listed apart in the source

Binder | Ratio hCT/hAmylin funct. (hCTR EC50 against hAmylin-R EC50) [1] | hCTR funct. EC50 [1] [nM] | hAmylin-R funct. EC50 [2] [nM] | IC50 [3] [nM] | Ratio hCT/hAmylin funct. [4] | hAmylin-R funct. EC50 [4] [nM] | hCTR funct. EC50 [5] [nM]
B1 | 17 | 1.97 | 0.116 | – | – | – | –
B2 | 17 | 10.1 | 0.594 | – | – | – | –
B3 | – | – | – | 0.143 | 7.4 | 0.175 | 1.29
B4 | – | – | – | 0.217 | 3.6 | 0.08 | 0.285
B5 | – | – | – | 0.321 | 1.2 | 0.06 | 0.07
